Assay [1] deals with T1, human CD22-Fc fusion protein (human, UniProt P20273 20-687, limits assumed).
T1 construct: also called recombinant CD22-Fc fusion protein; not shown: Fc part
T1 sequence (looked up): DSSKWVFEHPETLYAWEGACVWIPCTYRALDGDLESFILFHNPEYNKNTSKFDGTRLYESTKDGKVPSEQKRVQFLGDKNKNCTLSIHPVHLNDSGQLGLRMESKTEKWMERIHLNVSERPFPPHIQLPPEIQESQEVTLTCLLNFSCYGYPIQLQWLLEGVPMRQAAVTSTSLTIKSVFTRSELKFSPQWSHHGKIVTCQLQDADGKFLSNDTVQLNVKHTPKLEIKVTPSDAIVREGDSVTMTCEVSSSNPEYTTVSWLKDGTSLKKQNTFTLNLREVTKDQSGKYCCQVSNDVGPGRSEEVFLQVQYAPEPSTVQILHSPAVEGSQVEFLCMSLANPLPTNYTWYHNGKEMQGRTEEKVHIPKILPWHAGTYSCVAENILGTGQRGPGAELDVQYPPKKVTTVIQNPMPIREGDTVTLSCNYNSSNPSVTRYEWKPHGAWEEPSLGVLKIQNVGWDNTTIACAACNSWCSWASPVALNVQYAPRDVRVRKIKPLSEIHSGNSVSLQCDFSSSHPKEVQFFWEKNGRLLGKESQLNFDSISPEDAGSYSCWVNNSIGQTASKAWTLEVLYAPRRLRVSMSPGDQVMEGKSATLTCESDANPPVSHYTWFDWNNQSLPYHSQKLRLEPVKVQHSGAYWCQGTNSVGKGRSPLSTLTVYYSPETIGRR
Briefly: SPR Biacore T200; CD22-Fc captured on Protein G chip, scFv as analyte.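 Also: run in 1×HBST buffer, with the response of reference flow cell 1 subtracted from the CD22 capture cell and kinetics fitted in Biacore T200 evaluation software.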 On the technique in general: SPR reads the build-up and loss of mass on a sensor chip optically.

In assay [2] the target is T2, full-length human CD22 fused with flag and Myc tags at the C-terminus, on HEK293 or K562 cells (human, UniProt P20273 20-847).
T2 construct: whole, on cells; also called CD22/K562; CD22/HEK293; not shown: C-terminal flag and Myc tags of the pCMV6-Entry vector
T2 sequence (looked up): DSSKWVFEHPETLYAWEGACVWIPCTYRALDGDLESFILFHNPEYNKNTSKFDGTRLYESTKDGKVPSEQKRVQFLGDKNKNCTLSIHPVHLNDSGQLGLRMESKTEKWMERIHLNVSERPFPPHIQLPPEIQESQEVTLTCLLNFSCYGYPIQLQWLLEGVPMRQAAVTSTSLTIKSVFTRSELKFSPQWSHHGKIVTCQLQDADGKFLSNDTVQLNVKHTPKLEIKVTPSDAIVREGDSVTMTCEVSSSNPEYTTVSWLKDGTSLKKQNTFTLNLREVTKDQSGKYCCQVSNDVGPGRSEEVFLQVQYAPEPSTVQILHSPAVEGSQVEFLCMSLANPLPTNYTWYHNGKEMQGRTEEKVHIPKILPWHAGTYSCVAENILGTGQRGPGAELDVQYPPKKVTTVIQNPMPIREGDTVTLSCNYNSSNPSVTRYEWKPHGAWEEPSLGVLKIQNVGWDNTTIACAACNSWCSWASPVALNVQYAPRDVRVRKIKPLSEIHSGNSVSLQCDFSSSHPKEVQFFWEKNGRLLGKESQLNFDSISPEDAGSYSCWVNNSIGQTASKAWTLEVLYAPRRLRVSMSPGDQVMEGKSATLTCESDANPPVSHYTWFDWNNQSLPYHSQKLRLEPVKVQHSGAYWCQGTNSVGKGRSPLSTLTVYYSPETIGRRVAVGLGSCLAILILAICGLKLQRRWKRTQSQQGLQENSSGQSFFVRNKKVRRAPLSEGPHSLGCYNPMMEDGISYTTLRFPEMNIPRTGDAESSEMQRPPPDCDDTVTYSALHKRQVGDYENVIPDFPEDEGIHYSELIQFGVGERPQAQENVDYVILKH
Nature of the assay: FACS, scFv titrated on CD22-expressing cells, anti-His Alexa 488.

Assay [3] addresses T2, full-length human CD22 fused with flag …. Briefly: cell-based or functional assay.
Assay [4] shares this target. Briefly: cell-based or functional assay. This is another data set of the same source.

From patent US20220298257A1 (ELPIS BIOPHARMACEUTICALS, published 2022) come the findings set out here.

The term Kd denotes the equilibrium constant for the complex coming apart. For orientation: koff means the rate constant with which the complex falls apart. The term kon denotes the second-order rate constant of association. A low value points to slower complex formation. Usually EC50 stands for the concentration needed to bring the measured effect to its halfway point. A high value points to lower potency in that assay.

B1: EP160-H02 scFv (scFv)
scFv: QVQLVQSGAEVKKPGASVKVSCKASGYTFTSYGISWVRQAPGQGLEWMGGIIAYNGNTNYAQKLQGRVTMTTDTSTSTAYMELRSLRSDDTAVYYCARDPPEYSSSAGTDYWGQGTLVTVSSGGGGSGGGGSGGGGSEIVMTQSPATLSVSPGEGVTLSCRASQSVSSNLAWYQQRPGQAPRLLIYGASIKATDVPDRFSGGGSGTDFTLSITNLQSEDFAVYYCQQYHTWSPVTFGGGTKVEIK
notes: VH-VL orientation; not shown: C-terminal flag and 6xHIS tag
In assay [1], B1 returned a Kd of 1.84 nM, a koff of 0.000112 s⁻¹ and a kon of 60900 M⁻¹ s⁻¹. Besides, a half-maximal effect in assay [2] (EC50) was put at 0.68 nM.

B2: EP160-E03 scFv (scFv)
scFv: EVQLVQSGGGVVQPGKSLRLSCAASGFTFSSYGMHWVRQAPGKGLEWVAVIWYDGSNKYYADSVKGRFTISRDNSKNTLYLQMNSLRAEDTAVYYCARDGWTGFDYWGQGTTVTVSSGGGGSGGGGSGGGGSEIVLTQSPATLSVSPGEGVTLSCRASQSVSSNLAWYQQRPGQAPRLLIYGASIKATDVPDRFSGGGSGTDFTLSISNLQSEDFAVYYCQQYHTWPPVTFGGGTKVEIK
notes: as for B1
In assay [1], B2 displayed a Kd of 5.52 nM, a koff of 0.00164 s⁻¹ and a kon of 297000 M⁻¹ s⁻¹. It took 6.8 nM to reach a half-maximal effect in assay [2] (EC50).

B3: EP160-F04 scFv (scFv)
scFv: EVQLVQSGAEVKKPGASVKVSCKASGYTFTSYGISWVRQAPGQGLEWMGWISAYNGNTNYAQKLQGRVTMTTDTSTSTAYMELRSLKSDDTAVYYCAISIGAFDIWGQGTMVTVSSGGGGSGGGGSGGGGSEIVMTQSPATLSVSPGEEVTLSCRASQSVSSNLAWYQQRPGQAPRLLIYGASIKATDVPDRFSGGGSGTDFTLSISNLQSEDFAVYYCQQYHTWPPVTFGGGTKVEIK
notes: as for B1
In assay [1], B3 had a Kd of 5.89 nM, a koff of 0.000283 s⁻¹ and a kon of 40500 M⁻¹ s⁻¹. The same molecule showed an EC50 in assay [2] of 2.79 nM.

B4: EP160-G04 scFv (scFv)
scFv: QVQLVQSGAEVKKPGASVKVSCKASGYTFSSYGITWVRQAPGQGLEWMGWISAYNGNTNYAQKFQGRVTLTTDTSTSIAYMELRSLTSDDTAVYYCATGGQEDYWGQGTLVTVSSGGGGSGGGGSGGGGSEIVMTQSPATLSVSPGERATLSCRASQSVSSNLAWYQQKPGQAPRLLIYDASTRATGIPARFSGSGSGTEFTLTISSLQSEDFAVYYCQQYHNWAPLTFGGGTKVGIK
notes: as for B1
In assay [1], B4 returned a Kd of 0.322 nM, a koff of 4.03e-05 s⁻¹ and a kon of 125000 M⁻¹ s⁻¹. This molecule showed an EC50 in assay [2] of 1.1 nM.

B5: EP35-C6 scFv (scFv)
scFv: QVQLVESGGGVVQPGGSLRLSCAASGFPFSRFGIHWVRQAPGKGLDWVAFIRTDGGSQHYADSVKGRFTISRDNSENMVYLQMNSLRVDDTALYYCAKDPPRVTGNTGYDYDWGQGVQVTVSSGGGGSGGGGSGGGGSDIVMTQSPDSLAVSLGERATINCKSSQSVLYSANNKNCLAWYQQKSGQPPKLLIYWASTRESGVPGRFSGSGSGTDFTLTISSLQAEDVAVYYCQQYYSPPRTFGQGTKLEIK
notes: VH-VL orientation; also called EP35-C06; not shown: C-terminal flag and 6xHIS tag
As to B5, in assay [1], binding was characterised by a dissociation constant (Kd) of 15.8 nM, the koff came out at 0.000985 s⁻¹ and the kon is 62500 M⁻¹ s⁻¹. This molecule showed an EC50 in assay [2] of 19.3 nM.

B6: EP97-A10 scFv (scFv)
scFv: QVQLVQSGAEVKRPGASVKVSCKASGYTFTSYGISWVRQAPGQGLEWMGWISAYNGNTNYAQKLQGRVTMTTDTSTSTAYMELRSLRSDDTAVYYCARDPGIAVAGTVDYWGQGTLVTVSSGGGGSGGGGSGGGGSEIVMTQSPATLSVSPGEGVTLSCRASQSVSSNLAWYQQRPGQAPRLLIYGASIKATDVPDRFSGGGSGTDFTLSISNVQSEDFAVYYCQQYHTWTPVTFGGGTKVEIK
notes: as for B1
In assay [1], B6 came in with a Kd of 3.57 nM, a dissociation rate constant (koff) of 0.000145 s⁻¹ and a kon of 40500 M⁻¹ s⁻¹. Also, in assay [2], a half-maximal effect (EC50) was put at 1 nM.

B7: EP160-H02 (IgG) (antibody, V domains shown)
VH: QVQLVQSGAEVKKPGASVKVSCKASGYTFTSYGISWVRQAPGQGLEWMGGIIAYNGNTNYAQKLQGRVTMTTDTSTSTAYMELRSLRSDDTAVYYCARDPPEYSSSAGTDYWGQGTLVTVSS
VL: EIVMTQSPATLSVSPGEGVTLSCRASQSVSSNLAWYQQRPGQAPRLLIYGASIKATDVPDRFSGGGSGTDFTLSITNLQSEDFAVYYCQQYHTWSPVTFGGGTKVEIK
For the molecule B7, the “EC50 in ADCC assay (Promega ADCC Bioreporter, CD22/HEK293 target cells)” value in assay [3] is approximately 73.8 nM.

B8: EP97-G05 scFv (scFv)
scFv: EVQLVQSGAEVKKPGASVKVSCKASGYTFTSYGISWVRQAPGQGLEWMGWISAYNGNTNYAQKLQGRVTMTTDTSTSTAYMELRSLRSDDTAVYYCARDYGDPSGDDYWGQGTLVTVSSGGGGSGGGGSGGGGSEIVLTQSPATLSVSPGEGVTLSCRASQSVSSNLAWYQQRPGQAPRLLIYGASIKATDVPDRFSGGGSGTDFTLSISNLQSEDFAVYYCQQYHTWPPVTFGGGTKVEIK
notes: VH-VL orientation; also called EP097-G05; not shown: C-terminal flag and 6xHIS tag
In assay [1], B8 registered a Kd of 0.166 nM, a koff of 4.19e-05 s⁻¹ and a kon of 252000 M⁻¹ s⁻¹. The molecule further gave an EC50 in assay [2] of 3.3 nM.

B9: EP160-G05 scFv (scFv)
scFv: EVQLVQSGAEVKKPGASVKVSCKASGYTFTSYGISWVRQAPGQGLEWMGWISAYNGNTNYAQKLQGRVTMTTDTSTSTAYMELRSLRSDDTAVYYCARDPSMDVWGQGTTVTVSSGGGGSGGGGSGGGGSEIVLTQSPATLSVSPGERATLSCRASQSVSSNLAWYQQKPGQAPRLLIYGASTRATGIPARFSGSGSGTEFTLTISSLQSEDFAVYYCQQYNSWPPITFGQGTRLEIK
notes: as for B1
In turn, B9 had an EC50 in assay [2] of 2.9 nM.

B10: EP97-F01 scFv (scFv)
scFv: QVQLVQSGAEVKKPGASVKVSCKASGYTFTSYGISWVRQAPGQGLEWMGWISAYNGNTNYAQKLQGRVTMTTDTSTSTAYMELRSLRSDDTAVYYCARDHIAAAGDYWGQGTLVTVSSGGGGSGGGGSGGGGSEIVMTQSPATLSVSPGEGVTLSCRASQSVSSNLAWYQQRPGQAPRLLIYGASIKATDVPDRFSGGGSGTDFTLSITNLQSEDFAVYYCQQYHTWPPVTFGGGTKVEIK
notes: as for B1
In assay [1], B10 displayed a Kd of 0.219 nM, a koff of 0.000195 s⁻¹ and an on-rate (kon) of 888000 M⁻¹ s⁻¹. In addition, the EC50 in assay [2] turned out to be 10 nM.

B11: EP97-B03 (IgG) (antibody, V domains shown)
VH: QLVQSGAEVKKPGASVKVSCKASGYTFSSYGITWVRQAPGQGLEWMGWISAYNGNTNYAQKFQGRVTLTTDTSTSIAYMELRSLTSDDTAVYYCATGGQEDYWGQGTLVTVSS
VL: not shown
Take B11: in assay [4], the “T½ (Hour) of internalization, CD22/HEK293 cells, pHrodo secondary” value came out at 5.26 Hour. The “EC50 in ADCC assay (Promega ADCC Bioreporter, CD22/HEK293 target cells)” value in assay [3] was found to be 3.71 nM.

B12: EP97-B03 scFv (scFv)
scFv: QLVQSGAEVKKPGASVKVSCKASGYTFSSYGITWVRQAPGQGLEWMGWISAYNGNTNYAQKFQGRVTLTTDTSTSIAYMELRSLTSDDTAVYYCATGGQEDYWGQGTLVTVSSGGGGSGGGGSGGGGSEIVLTQSPATLSVSPGERATLSCRASQSVSSNLAWYQQKPGQAPRLLIYGASTRATGIPARFSGSGSGTEFTLTISSLQSEDFAVYYCQQYNSWPPLTFGGGTKVEIK
notes: as for B1
Regarding B12, in assay [1], the Kd was 0.846 nM, the koff worked out at 0.000318 s⁻¹ and the kon is 376000 M⁻¹ s⁻¹. In assay [2], this molecule returned an EC50 of 0.7 nM.
